Laboratory results from the supplement of paper PMC11246515.
± gives the standard deviation of the averaged measurements.

Assay: total protein half-life in vivo (active degradation + dilution); higher = more stable protein
[1] = E. coli NCM3722 delta-clpP delta-lon delta-hslV, growth: N-lim chemostat, doubling time 6 h
[2] = E. coli NCM3722 delta-clpP, growth: N-lim chemostat, doubling time 6 h
[3] = E. coli NCM3722 delta-hslV, growth: N-lim chemostat, doubling time 6 h
[4] = E. coli NCM3722 delta-lon, growth: N-lim chemostat, doubling time 6 h
[5] = E. coli NCM3722 delta-smpB, growth: N-lim chemostat, doubling time 6 h
[6] = wild type E. coli NCM3722, growth: C-lim chemostat, doubling time 3 h
[7] = wild type E. coli NCM3722, growth: C-lim chemostat, doubling time 6 h
[8] = wild type E. coli NCM3722, growth: C-lim chemostat, doubling time 12 h
[9] = wild type E. coli NCM3722, growth: N-lim chemostat, doubling time 6 h
[10] = wild type E. coli NCM3722, growth: N-lim chemostat, doubling time 12 h
[11] = wild type E. coli NCM3722, growth: P-lim chemostat, doubling time 6 h
[12] = wild type E. coli NCM3722, growth: P-lim chemostat, doubling time 12 h

Sequence: MRLLHTMLRVGDLQRSIDFYTKVLGMKLLRTSENPEYKYSLAFVGYGPETEEAVIELTYNWGVDKYELGTAYGHIALSVDNAAEACEKIRQNGGNVTREAGPVKGGTTVIAFVEDPDGYKIELIEEKDAGRGLGN [P0AC81]
- total protein half-life in vivo [1]: 5.13 ± 0.38 h
- total protein half-life in vivo [2]: 4.5 ± 0.53 h
- total protein half-life in vivo [3]: 4.72 ± 0.37 h
- total protein half-life in vivo [4]: 5 ± 0.3 h
- total protein half-life in vivo [5]: 4.3 ± 0.39 h
- total protein half-life in vivo [6]: 3.48 ± 0.63 h
- total protein half-life in vivo [7]: 5.44 ± 0.1 h
- total protein half-life in vivo [8]: 8.9 ± 0.29 h
- total protein half-life in vivo [9]: 4.38 ± 0.4 h
- total protein half-life in vivo [10]: 8.01 ± 1 h
- total protein half-life in vivo [11]: 5.41 ± 0.27 h
- total protein half-life in vivo [12]: 11.6 ± 0.91 h

Sequence: MSVMFDPDTAIYPFPPKPTPLSIDEKAYYREKIKRLLKERNAVMVAHYYTDPEIQQLAEETGGCISDSLEMARFGAKHPASTLLVAGVRFMGETAKILSPEKTILMPTLQAECSLDLGCPVEEFNAFCDAHPDRTVVVYANTSAAVKARADWVVTSSIAVELIDHLDSLGEKIIWAPDKHLGRYVQKQTGGDILCWQGACIVHDEFKTQALTRLQEEYPDAAILVHPESPQAIVDMADAVGSTSQLIAAAKTLPHQRLIVATDRGIFYKMQQAVPDKELLEAPTAGEGATCRSCAHCPWMAMNGLQAIAEALEQEGSNHEVHVDERLRERALVPLNRMLDFAATLRG
- total protein half-life in vivo [1]: 3.98 ± 0.16 h
- total protein half-life in vivo [2]: 1.78 ± 0.25 h
- total protein half-life in vivo [3]: 0.977 ± 0.24 h
- total protein half-life in vivo [4]: 1.1 ± 0.098 h
- total protein half-life in vivo [5]: 1.08 ± 0.25 h
- total protein half-life in vivo [6]: 1.14 ± 0.026 h
- total protein half-life in vivo [7]: 1.39 ± 0.083 h
- total protein half-life in vivo [8]: 1.8 ± 0.44 h
- total protein half-life in vivo [9]: 0.926 ± 0.058 h
- total protein half-life in vivo [10]: 1.03 ± 0.097 h
- total protein half-life in vivo [11]: 1.26 h
- total protein half-life in vivo [12]: 2.48 ± 0.81 h

Sequence: MTYAVEFDNVSRLYGDVRAVDGVSIAIKDGEFFSMLGPSGSGKTTCLRLIAGFEQLSGGAISIFGKPASNLPPWERDVNTVFQDYALFPHMSILDNVAYGLMVKGVNKKQRHAMAQEALEKVALGFVHQRKPSQLSGGQRQRVAIARALVNEPRVLLLDEPLGALDLKLREQMQLELKKLQQSLGITFIFVTHDQGEALSMSDRVAVFNNGRIEQVDSPRDLYMRPRTPFVAGFVGTSNVFDGLMAEKLCGMTGSFALRPEHIRLNTPGELQANGTIQAVQYQGAATRFELKLNGGEKLLVSQANMTGEELPATLTPGQQVMVSWSRDVMVPLVEER
- total protein half-life in vivo [1]: 6.01 ± 0.38 h
- total protein half-life in vivo [2]: 6.427 ± 0.038 h
- total protein half-life in vivo [3]: 5.58 ± 0.28 h
- total protein half-life in vivo [4]: 4.65 ± 1.3 h
- total protein half-life in vivo [5]: 5.64 ± 0.085 h
- total protein half-life in vivo [8]: 10.2 ± 0.023 h
- total protein half-life in vivo [9]: 4.78 ± 0.27 h
- total protein half-life in vivo [10]: 10.4 ± 0.55 h
- total protein half-life in vivo [11]: 4.68 h
- total protein half-life in vivo [12]: 10.8 ± 1.8 h

Sequence: MRTRHLVGLISGVLILSVLLPVGLSIWLAHQQVETSFIEELDTYSSRVAIRANKVATQGKDALQELERWQGAACSEAHLMEMRRVSYSYRYIQEVAYIDNNVPQCSSLEHESPPDTFPEPGKISKDGYRVWLTSHNDLGIIRYMVAMGTAHYVVMIDPASFIDVIPYSSWQIDAAIIGNAHNVVITSSDEIAQGIITRLQKTPGEHIENNGIIYDILPLPEMNISIITWASTKMLQKGWHRQVFIWLPLGLVIGLLAAMFVLRILRRIQSPHHRLQDAIENRDICVHYQPIVSLANGKIVGAEALARWPQTDGSWLSPDSFIPLAQQTGLSEPLTLLIIRSVFEDMGDWLRQHPQQHISINLESPVLTSEKIPQLLRDMINHYQVNPRQIALELTEREFADPKTSAPIISRYREAGHEIYLDDFGTGYSSLSYLQDLDVDILKIDKSFVDALEYKNVTPHIIEMAKTLKLKMVAEGIETSKQEEWLRQHGVHYGQGWLYSKALPKEDFLRWAEQHL
- total protein half-life in vivo [1]: 6.97 ± 0.34 h
- total protein half-life in vivo [3]: 5.64 ± 0.36 h
- total protein half-life in vivo [4]: 5.57 ± 1.2 h
- total protein half-life in vivo [5]: 6.12 ± 0.67 h
- total protein half-life in vivo [6]: 3.21 ± 0.33 h
- total protein half-life in vivo [9]: 6 ± 0.23 h
- total protein half-life in vivo [10]: 12.2 ± 0.44 h
- total protein half-life in vivo [11]: 6.32 ± 0.94 h
- total protein half-life in vivo [12]: 12.6 ± 0.13 h

Sequence: MAEHRGGSGNFAEDREKASDAGRKGGQHSGGNFKNDPQRASEAGKKGGQQSGGNKSGKS
- total protein half-life in vivo [1]: 0.599 h
- total protein half-life in vivo [4]: 1.5 h
- total protein half-life in vivo [9]: 1.49 h
- total protein half-life in vivo [10]: 1.92 ± 0.038 h

Sequence: MEQVVIVDAIRTPMGRSKGGAFRNVRAEDLSAHLMRSLLARNPALEAAALDDIYWGCVQQTLEQGFNIARNAALLAEVPHSVPAVTVNRLCGSSMQALHDAARMIMTGDAQACLVGGVEHMGHVPMSHGVDFHPGLSRNVAKAAGMMGLTAEMLARMHGISREMQDAFAARSHARAWAATQSAAFKNEIIPTGGHDADGVLKQFNYDEVIRPETTVEALATLRPAFDPVNGMVTAGTSSALSDGAAAMLVMSESRAHELGLKPRARVRSMAVVGCDPSIMGYGPVPASKLALKKAGLSASDIGVFEMNEAFAAQILPCIKDLGLIEQIDEKINLNGGAIALGHPLGCSGARISTTLLNLMERKDVQFGLATMCIGLGQGIATVFERV
- total protein half-life in vivo [1]: 4.38 ± 0.27 h
- total protein half-life in vivo [2]: 3.05 ± 0.081 h
- total protein half-life in vivo [3]: 2.922 ± 0.023 h
- total protein half-life in vivo [4]: 2.52 ± 0.046 h
- total protein half-life in vivo [5]: 3.22 ± 0.013 h
- total protein half-life in vivo [6]: 3.36 ± 0.57 h
- total protein half-life in vivo [7]: 5 ± 0.57 h
- total protein half-life in vivo [8]: 9.67 ± 0.97 h
- total protein half-life in vivo [9]: 3.18 ± 0.39 h
- total protein half-life in vivo [10]: 4.39 ± 0.12 h
- total protein half-life in vivo [11]: 5.97 ± 0.56 h
- total protein half-life in vivo [12]: 11.5 ± 0.95 h

Sequence: MRKILITGGAGFIGSALVRYIINETSDAVVVVDKLTYAGNLMSLAPVAQSERFAFEKVDICDRAELARVFTEHQPDCVMHLAAESHVDRSIDGPAAFIETNIVGTYTLLEAARAYWNALTEDKKSAFRFHHISTDEVYGDLHSTDDFFTETTPYAPSSPYSASKASSDHLVRAWLRTYGLPTLITNCSNNYGPYHFPEKLIPLMILNALAGKSLPVYGNGQQIRDWLYVEDHARALYCVATTGKVGETYNIGGHNERKNLDVVETICELLEELAPNKPHGVAHYRDLITFVADRPGHDLRYAIDASKIARELGWLPQETFESGMRKTVQWYLANESWWKQVQDGSYQGERLGLKG
- total protein half-life in vivo [1]: 5.27 ± 0.23 h
- total protein half-life in vivo [2]: 5.27 ± 0.67 h
- total protein half-life in vivo [3]: 5.1 ± 0.12 h
- total protein half-life in vivo [4]: 5.96 ± 0.64 h
- total protein half-life in vivo [5]: 4.74 ± 0.24 h
- total protein half-life in vivo [7]: 6.39 ± 0.12 h
- total protein half-life in vivo [8]: 11.7 ± 1.8 h
- total protein half-life in vivo [9]: 4.95 ± 0.23 h
- total protein half-life in vivo [10]: 10.7 ± 2.9 h
- total protein half-life in vivo [11]: 6.4 ± 0.31 h
- total protein half-life in vivo [12]: 12.61 ± 0.0068 h
